Patent JP2005027671A (dated 2005)
One block for each binder: values may come before it.

Assays:
可溶性ヒトVEGF受容体KDR 7N [1] = molecular target: T1, 可溶性ヒトVEGF受容体KDR 7N (human, UniProt P35968 20-757); test: ELISA, coated antigen from 10 ug/ml in 3-fold dilutions
T1 construct: range 1-738; The range 1-738 counts on the mature protein (after the 19-residue signal peptide)

可溶性ヒトVEGF受容体KDR 7N [2] = molecular target: T1, 可溶性ヒトVEGF受容体KDR 7N; test: ELISA, coated antigen 4 ug/ml
可溶性ヒトVEGF受容体Flt-1 7N = molecular target: T2, 可溶性ヒトVEGF受容体Flt-1 7N (human, UniProt P17948 27-750); test: inhibition of 125I-VEGF binding to coated Flt-1 7N, purified antibody
T2 construct: range 1-750; also called 可溶性ヒトFlt-1 7N

ヒトVEGF受容体Flt-1(細胞表面発現) = molecular target: T3, ヒトVEGF受容体Flt-1(細胞表面発現) (human, UniProt P17948 27-1338); test: inhibition of 125I-VEGF binding to NIH3T3-Flt-1 cells, purified antibody
T3 construct: whole, on cells; also called NIH3T3-Flt-1細胞; ヒトVEGF受容体Flt-1発現NIH3T3細胞

可溶性ヒトVEGF受容体KDR 7N [3] = molecular target: T1, 可溶性ヒトVEGF受容体KDR 7N; test: ELISA, coated antigen 4 ug/ml, antibody titrated

T1 sequence (P35968 20-757): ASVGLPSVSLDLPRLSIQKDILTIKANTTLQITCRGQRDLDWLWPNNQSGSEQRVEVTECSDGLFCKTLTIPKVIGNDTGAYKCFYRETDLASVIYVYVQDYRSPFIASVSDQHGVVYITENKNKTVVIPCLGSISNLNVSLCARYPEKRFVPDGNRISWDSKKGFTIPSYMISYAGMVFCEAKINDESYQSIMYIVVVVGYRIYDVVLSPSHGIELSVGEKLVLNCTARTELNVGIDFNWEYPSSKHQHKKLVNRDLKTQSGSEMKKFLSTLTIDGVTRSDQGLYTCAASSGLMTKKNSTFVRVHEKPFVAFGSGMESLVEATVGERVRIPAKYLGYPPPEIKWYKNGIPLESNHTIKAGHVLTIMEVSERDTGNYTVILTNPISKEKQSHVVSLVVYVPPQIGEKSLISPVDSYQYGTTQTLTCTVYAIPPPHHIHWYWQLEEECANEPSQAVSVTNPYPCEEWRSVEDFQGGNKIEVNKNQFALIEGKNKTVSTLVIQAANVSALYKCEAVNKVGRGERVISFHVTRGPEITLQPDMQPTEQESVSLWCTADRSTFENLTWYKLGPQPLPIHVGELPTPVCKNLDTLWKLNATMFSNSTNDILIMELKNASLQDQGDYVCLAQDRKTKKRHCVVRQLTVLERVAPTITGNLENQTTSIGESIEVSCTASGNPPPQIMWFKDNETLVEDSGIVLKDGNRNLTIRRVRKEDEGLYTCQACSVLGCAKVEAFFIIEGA

B1: 抗ヒトVEGF受容体Flt-1ヒト型CDR移植抗体KM8550 (antibody, V domains shown)
VH: QVQLVQSGAEVKKPGASVKVSCKASGYTFINYNMHWVRQAPGQGLEWMGAIFPGNGFTSYNQKFKGRVTITVDKSTSTAYMELSSLRSEDTAVYYCARDGDYYFDYWGQGTLVTVSS
VL: DIQMTQSPSSLSASVGDRVTITCSASSSVSYMHWYQQKPGKAPKLLIYRTSNLASGVPSRFSGSGSGTDFTLTISSLQPEDFATYYCHQWSMYTFGQGTKVEIK
notes: CDR-grafted IgG derived from KM1750; also called pKANTEX1750HV0LV0(I); 1750HV0 + 1750LV0(I)
binding result (可溶性ヒトVEGF受容体KDR 7N [1]): no binding (tested: 5μg/ml)

B2: 抗ヒトVEGF受容体Flt-1ヒト型CDR移植抗体KM8551 (antibody, V domains shown)
VH: QVQLVQSGAEVKKPGASVKVSCKASGYTFINYNMHWVRQAPGQGLEWMGAIFPGNGFTSYNQKFKGRVTITVDKSTSTAYMELSSLRSEDTAVYYCARDGDYYFDYWGQGTLVTVSS
VL: DIVMTQSPDSLAVSLGERATINCSASSSVSYMHWYQQKPGQPPKLLIYRTSNLASGVPDRFSGSGSGTDFTLTISSLQAEDVAVYYCHQWSMYTFGQGTKVEIK
notes: CDR-grafted IgG derived from KM1750; also called pKANTEX1750HV0LV0(IV); 1750HV0 + 1750LV0(IV)
binding result (可溶性ヒトVEGF受容体KDR 7N [1]): no binding (tested: 5μg/ml)

B4: 抗ヒトVEGF受容体Flt-1ヒト型CDR移植抗体KM8553 (antibody, V domains shown)
VH: QVQLVQSGAEVKKPGASVKVSCKASGYTFINYNMHWVRQAPGQGLEWMGAIFPGNGFTSYNQKFKGRVTITVDKSTSTAYMQLRSLRSEDTAVYFCARDGDYYFDYWGQGTLVTVSS
VL: DIVMTQSPDSLAVSLGERATINCSASSSVSYMHWYQQKPGQPPKLLIYRTSNLASGVPDRFSGSGSGTDFTLTISSLQAEDVAVYYCHQWSMYTFGQGTKVEIK
notes: CDR-grafted IgG derived from KM1750 with modified VH framework; also called pKANTEX1750HV3LV0(IV); 1750HV3 + 1750LV0(IV)
binding result (可溶性ヒトVEGF受容体KDR 7N [1]): no binding (tested: 5μg/ml)

B7: 抗ヒトVEGF受容体Flt-1マウスモノクローナル抗体KM1732 (antibody, V domains shown)
VH: QGQMQQSGAELVKPGASVKLSCKPSGFTFSSNYISWLKQKPGQSLEWIAWIYAGTGDASYNQKFTAKAHVTVDTSSSTAYMQLSSLTTEDSAIYYCARHGGDGYWFAYWGQGTLVTVSA
VL: QLVLTQSPAIMSASQGEKVTMTCSASSSVSYMHWYQQKSGTSPKRWIYDTSKLPSGVPARFSGSGSGTSYSLTISSMEAEDAATYYCQQWSSNPPTFGAGTKLELK
notes: Mouse hybridoma IgG (Balb/c mouse immunised with Flt-1 7N, screened on Flt-1 3N); cDNAs were cloned with mouse Cgamma1 and Ckappa probes; also called FERM BP-5698
binding result (可溶性ヒトVEGF受容体KDR 7N [2]): no binding (tested: 0.1μg/ml) | IC50 (可溶性ヒトVEGF受容体Flt-1 7N): 1.1 µg/mL | IC50 (ヒトVEGF受容体Flt-1(細胞表面発現)): 0.05 µg/mL

B9: 抗ヒトVEGF受容体Flt-1マウスモノクローナル抗体KM1750 (antibody, V domains shown)
VH: QAFLQQSGAELVRPGASVKMSCKASGYTFINYNMHWVKQTPRQGLEWIGAIFPGNGFTSYNQKFKGKATLTVDKSSSTVYMQLRSLTSEDSAVYFCARDGDYYFDYWGQGTTLTVSS
VL: QIVLTQSPAIMSASLGEEITLTCSASSSVSYMHWYQQKSGTSPKLLIYRTSNLASGVPFRFSGSGSGTFYSLTISSVEAEDAADYYCHQWSMYTFGGGTKLEIK
notes: cDNAs were cloned with mouse Cgamma1 and Ckappa probes; also called FERM BP-5700
binding result (可溶性ヒトVEGF受容体KDR 7N [2]): no binding (tested: 0.1μg/ml) | IC50 (可溶性ヒトVEGF受容体Flt-1 7N): 2 µg/mL | IC50 (ヒトVEGF受容体Flt-1(細胞表面発現)): 0.041 µg/mL

B10: 抗ヒトVEGF受容体Flt-1ヒト型キメラ抗体KM2550 (antibody, V domains shown)
VH: QAFLQQSGAELVRPGASVKMSCKASGYTFINYNMHWVKQTPRQGLEWIGAIFPGNGFTSYNQKFKGKATLTVDKSSSTVYMQLRSLTSEDSAVYFCARDGDYYFDYWGQGTTLTVSS
VL: QIVLTQSPAIMSASLGEEITLTCSASSSVSYMHWYQQKSGTSPKLLIYRTSNLASGVPFRFSGSGSGTFYSLTISSVEAEDAADYYCHQWSMYTFGGGTKLEIK
notes: Expressed in YB2/0 cells; also called pKANTEX1750
binding result (可溶性ヒトVEGF受容体KDR 7N [3]): no binding (tested: 0.0152〜100ng/ml)

Second part, the binder after the results:

binding result (可溶性ヒトVEGF受容体KDR 7N [1]): no binding (tested: 5μg/ml)
B3: 抗ヒトVEGF受容体Flt-1ヒト型CDR移植抗体KM8554 (antibody, V domains shown)
VH: QVQLVQSGAEVKKPGASVKVSCKASGYTFINYNMHWVRQAPGQGLEWMGAIFPGNGFTSYNQKFKGRVTITVDKSTSTAYMELSSLRSEDTAVYYCARDGDYYFDYWGQGTLVTVSS
VL: DIQMTQSPSSLSASVGEEVTITCSASSSVSYMHWYQQKPGKAPKLLIYRTSNLASGVPSRFSGSGSGTFYTLTISSLQPEDFATYYCHQWSMYTFGQGTKVEIK
notes: CDR-grafted IgG derived from KM1750 with modified VL framework; also called pKANTEX1750HV0LV4; 1750HV0 + 1750LV4

binding result (可溶性ヒトVEGF受容体KDR 7N [1]): no binding (tested: 5μg/ml)
B5: 抗ヒトVEGF受容体Flt-1ヒト型CDR移植抗体KM8552 (antibody, V domains shown)
VH: QVQLVQSGAEVKKPGASVKVSCKASGYTFINYNMHWVRQAPGQGLEWMGAIFPGNGFTSYNQKFKGRVTITVDKSTSTAYMQLRSLRSEDTAVYFCARDGDYYFDYWGQGTLVTVSS
VL: DIQMTQSPSSLSASVGDRVTITCSASSSVSYMHWYQQKPGKAPKLLIYRTSNLASGVPSRFSGSGSGTDFTLTISSLQPEDFATYYCHQWSMYTFGQGTKVEIK
notes: CDR-grafted IgG derived from KM1750 with modified VH framework; also called pKANTEX1750HV3LV0(I); 1750HV3 + 1750LV0(I)

binding result (可溶性ヒトVEGF受容体KDR 7N [1]): no binding (tested: 5μg/ml)
B6: 抗ヒトVEGF受容体Flt-1ヒト型CDR移植抗体KM8555 (antibody, V domains shown)
VH: QVQLVQSGAEVKKPGASVKVSCKASGYTFINYNMHWVRQAPGQGLEWMGAIFPGNGFTSYNQKFKGRVTITVDKSTSTAYMQLRSLRSEDTAVYFCARDGDYYFDYWGQGTLVTVSS
VL: DIQMTQSPSSLSASVGEEVTITCSASSSVSYMHWYQQKPGKAPKLLIYRTSNLASGVPSRFSGSGSGTFYTLTISSLQPEDFATYYCHQWSMYTFGQGTKVEIK
notes: CDR-grafted IgG derived from KM1750 with modified VH and VL frameworks; also called pKANTEX1750HV3LV4; 1750HV3 + 1750LV4

binding result (可溶性ヒトVEGF受容体KDR 7N [3]): no binding (tested: 0.0152〜100ng/ml)
B8: 抗ヒトVEGF受容体Flt-1ヒト型キメラ抗体KM2532 (antibody, V domains shown)
VH: QGQMQQSGAELVKPGASVKLSCKPSGFTFSSNYISWLKQKPGQSLEWIAWIYAGTGDASYNQKFTAKAHVTVDTSSSTAYMQLSSLTTEDSAIYYCARHGGDGYWFAYWGQGTLVTVSA
VL: QLVLTQSPAIMSASQGEKVTMTCSASSSVSYMHWYQQKSGTSPKRWIYDTSKLPSGVPARFSGSGSGTSYSLTISSMEAEDAATYYCQQWSSNPPTFGAGTKLELK
notes: Expressed in YB2/0 cells; also called pKANTEX1732
